In US8722622B2, “FGF21 conjugates and anti-diabetic uses thereof” (COVX Technologies Ireland, Limited, priority 2010, dated 2014):
Several values for one entry are separate records, joined by “and”; a condition that tells them apart may be missing. Equal values may be shown once. Read-outs that look alike come from different tables or passages of the source.

Columns and labels:
[1] = tested on: Glut1 mRNA expression in differentiated 3T3-L1 adipocytes; assay: Glut1 Taqman assay; type: cell-based; details: 6 hrs
Protocol: Differentiated 3T3-L1 adipocytes were used to measure the Glut1 mRNA expression by qPCR method. Overnight serum starved day 10-14 differentiated 3T3-L1 adipocytes were treated with compounds for 6 hrs. Total RNA was extracted from these cells, and Glut1 and GAPDH mRNA expression was measured using a Quantitect Probe RT-PCR kit and running a quantitative real time PCR reaction in a Taqman machine (Applied Biosystems®). The bioactivity of the compounds was determined by a fold change in Glut1 mRNA levels normalized by the GAPDH mRNA levels from each sample. EC50 values as measurements of the potency of the compounds were obtained from the dose response curves in the assay.
3T3-L1 adipocytes were seeded at day 8 in 24-well tissue culture plates (Falcon®, Cat#353047), and incubated in DMEM complete medium (10% FBS, 2 mM L-glutamine, 1% P/S) at 37° C., 5% CO2. […] The medium was aspirated, and then RNA extracted from the cells using the RNeasy mini Kit according to the manufacturer's instructions. RNA was measured at A260 nm using the Spectramax® Plus spectrophotometer.

[2] = set-up: species or system Swiss-Webster mice; details: mouse, in vivo
Protocol: The PK of FGF21 antibody conjugates were examined in mice after IV or SC administration. […] Antibody conjugates concentrations in serum were determined using an ELISA which captured the FGF21 portion of the antibody conjugates through a monoclonal anti-hFGF21 antibody bound to a 96-well plate. FGF21 antibody conjugates bound to the plate were detected through an anti-hFc monoclonal antibody, and concentrations were determined using a standard curve of the PK dosing solution diluted into serum-containing assay buffer. SC bioavailability was calculated as the ratio of the area-under the curve (AUC) of the SC serum concentration profile divided by the AUC of the IV serum concentration profile.

[3] = Stability of linkers L1-L4 conjugated to FGF21 (LC-MS); type: physicochemical; details: +4° C.
Protocol: The following experiment was performed to investigate the chemical stability over 2 weeks of the four linkers upon conjugation to FGF21: each linker was conjugated to FGF21, placed at +4° C. storage conditions, and aliquots were removed and quenched by freezing at specific time points, and linker stability was monitored by LCMS analysis.
The four linkers were dissolved in DMSO from lyophilized stock material. […] L1 was reacted with protein for 30 mins; L2, L3 and L4 were reacted for 2 hrs. The conjugation reaction was quenched by removal of excess linkers through size-exclusion resin. Conjugated FGF21ΔH-A129C protein was placed at +4° C. for stability storage. […] Analysis of linker stability was performed by LC-MS analysis to determine the relative amount of unconjugated protein, protein+linker conjugation, and single and double hydrolysis events of the conjugated protein+linker.
Linker hydrolysis is the critical analytical variable in this experiment. Hydrolysis was monitored by observing the subsequent addition of H2O to the FGF21-linker complex. A single addition of H2O, +(1) H2O, likely indicates the hydrolysis of the active AZD group that is present on all 4 linkers. The addition of a second H2O molecule, +(2) H2O, is a strong indicator of hydrolysis (eg—chemical instability) in the linker. L1 is particularly susceptible because of the presence of a maleimide functional group.

[4] = differentiated 3T3-L1 adipocytes, read-out: EC50 in Glut1 Taqman assay
[5] = 0 hrs, % of total measured protein

B1: FGF21ΔH-Knull-P2: FGF21 lysine-null mutant, SEQ ID NO:22 (protein, listed as Homo sapiens)
chain: PIPDSSPLLQFGGQVRQRYLYTDDAQQTEAHLEIREDGTVGGAADQSPESLLQLRALRPGVIQILGVRTSRFLCQRPDGALYGSLHFDPEACSFRELLLEDGYNVYQSEAHGLPLHLPGNRSPHRDPAPRGPARFLPLPGLPPAPLEPPGILAPQPPDVGSSDPLSMVGPSQGRSPSYAS
[1]; [4]
  EC50: 1.2 nM

B2: FGF21ΔH-Knull-H1K: FGF21 lysine-null mutant with H1K, SEQ ID NO:23 (protein, listed as Homo sapiens)
chain: KPIPDSSPLLQFGGQVRQRYLYTDDAQQTEAHLEIREDGTVGGAADQSPESLLQLRALRPGVIQILGVRTSRFLCQRPDGALYGSLHFDPEACSFRELLLEDGYNVYQSEAHGLPLHLPGNRSPHRDPAPRGPARFLPLPGLPPALPEPPGILAPQPPDVGSSDPLSMVGPSQGRSPSYAS
[2]; iv
  IV half-life: 16 h
[2]; sc
  SC bioavailability: 51%
  SC half-life: 11 h
[1]; [4]
  EC50: 6.4 nM and 4.3 nM

B3: FGF21ΔH-Knull-S181K: FGF21 lysine-null mutant with S181K, SEQ ID NO:24 (protein, listed as Homo sapiens)
chain: PIPDSSPLLQFGGQVRQRYLYTDDAQQTEAHLEIREDGTVGGAADQSPESLLQLRALRPGVIQILGVRTSRFLCQRPDGALYGSLHFDPEACSFRELLLEDGYNVYQSEAHGLPLHLPGNRSPHRDPAPRGPARFLPLPGLPPAPLEPPGILAPQPPDVGSSDPLSMVGPSQGRSPSYAK
[1]; [4]
  EC50: 7.5 nM

B4: FGF21ΔH-H125C: FGF21 cysteine mutant, SEQ ID NO:6 (protein, listed as Homo sapiens)
chain: PIPDSSPLLQFGGQVRQRYLYTDDAQQTEAHLEIREDGTVGGAADQSPESLLQLKALKPGVIQILGVKTSRFLCQRPDGALYGSLHFDPEACSFRELLLEDGYNVYQSEAHGLPLHLPGNKSPCRDPAPRGPARFLPLPGLPPALPEPPGILAPQPPDVGSSDPLSMVGPSQGRSPSYAS
[1]; [4]
  EC50: 1.2 nM

B5: FGF21ΔH-A129C: FGF21 cysteine mutant, SEQ ID NO:9 (protein, listed as Homo sapiens)
chain: PIPDSSPLLQFGGQVRQRYLYTDDAQQTEAHLEIREDGTVGGAADQSPESLLQLKALKPGVIQILGVKTSRFLCQRPDGALYGSLHFDPEACSFRELLLEDGYNVYQSEAHGLPLHLPGNKSPHRDPCPRGPARFLPLPGLPPALPEPPGILAPQPPDVGSSDPLSMVGPSQGRSPSYAS
[1]; 3T3-L1 adipocytes, Taqman quantitative real-time PCR, read-out: Glut1 RNA expression EC50
  EC50: 16 nM
[1]
  Glut1 induction in 3T3-L1 adipocytes: dose-dependent Glut1 induction
[1]; [4]
  EC50: 1.4 nM

B6: L1-FGF21ΔH-A129C: Linker-1 conjugated to FGF21ΔH-A129C protein (Table 4; Table 5 row L1) (conjugate, UniProt Q9NSA1 29-209, looked up, variant H1* A129C)
Fibroblast growth factor 21: PIPDSSPLLQFGGQVRQRYLYTDDAQQTEAHLEIREDGTVGGAADQSPESLLQLKALKPGVIQILGVKTSRFLCQRPDGALYGSLHFDPEACSFRELLLEDGYNVYQSEAHGLPLHLPGNKSPHRDPCPRGPARFLPLPGLPPALPEPPGILAPQPPDVGSSDPLSMVGPSQGRSPSYAS
modifications: Linker-1 attached
[3]; 0 hrs
  1 linker (protein+linker): 49%
  +(1) H2O: 30%
  +(2) H2O: 8%
[3]; [5]
  0 linker (unconjugated protein): 13%
[3]; 24 hrs
  0 linker (unconjugated protein): 14%
  1 linker (protein+linker): 41%
  +(1) H2O: 34%
  +(2) H2O: 11%
[3]; 72 hrs
  0 linker (unconjugated protein): 14%
  1 linker (protein+linker): 40%
  +(1) H2O: 35%
  +(2) H2O: 11%
[3]; 168 hrs
  0 linker (unconjugated protein): 10%
  1 linker (protein+linker): 33%
  +(1) H2O: 40%
  +(2) H2O: 18%
[3]; 336 hrs
  0 linker (unconjugated protein): 12%
  1 linker (protein+linker): 28%
  +(1) H2O: 41%
[3]; 336 hrs (2 weeks)
  +(2) H2O: 18%

B7: L2-FGF21ΔH-A129C: Linker-2 conjugated to FGF21ΔH-A129C protein (Table 4; Table 5 row L2) (conjugate, UniProt Q9NSA1 29-209, looked up, variant H1* A129C)
Fibroblast growth factor 21: PIPDSSPLLQFGGQVRQRYLYTDDAQQTEAHLEIREDGTVGGAADQSPESLLQLKALKPGVIQILGVKTSRFLCQRPDGALYGSLHFDPEACSFRELLLEDGYNVYQSEAHGLPLHLPGNKSPHRDPCPRGPARFLPLPGLPPALPEPPGILAPQPPDVGSSDPLSMVGPSQGRSPSYAS
modifications: Linker-2 attached
[3]; 0 hrs
  1 linker (protein+linker): 45%
  +(1) H2O: 27%
  +(2) H2O: 6%
[3]; [5]
  0 linker (unconjugated protein): 22%
[3]; 24 hrs
  0 linker (unconjugated protein): 23%
  1 linker (protein+linker): 43%
  +(1) H2O: 26%
  +(2) H2O: 8%
[3]; 72 hrs
  0 linker (unconjugated protein): 24%
  1 linker (protein+linker): 37%
  +(1) H2O: 32%
  +(2) H2O: 8%
[3]; 168 hrs
  0 linker (unconjugated protein): 24%
  1 linker (protein+linker): 40%
  +(1) H2O: 29%
  +(2) H2O: 7%
[3]; 336 hrs
  0 linker (unconjugated protein): 26%
  1 linker (protein+linker): 38%
  +(1) H2O: 28%
[3]; 336 hrs (2 weeks)
  +(2) H2O: 8%

B8: L3-FGF21ΔH-A129C: Linker-3 conjugated to FGF21ΔH-A129C protein (Table 4; Table 5 row L3) (conjugate, UniProt Q9NSA1 29-209, looked up, variant H1* A129C)
Fibroblast growth factor 21: PIPDSSPLLQFGGQVRQRYLYTDDAQQTEAHLEIREDGTVGGAADQSPESLLQLKALKPGVIQILGVKTSRFLCQRPDGALYGSLHFDPEACSFRELLLEDGYNVYQSEAHGLPLHLPGNKSPHRDPCPRGPARFLPLPGLPPALPEPPGILAPQPPDVGSSDPLSMVGPSQGRSPSYAS
modifications: Linker-3 attached
[3]; 0 hrs
  1 linker (protein+linker): 45%
  +(1) H2O: 30%
  +(2) H2O: 6%
[3]; [5]
  0 linker (unconjugated protein): 19%
[3]; 24 hrs
  0 linker (unconjugated protein): 18%
  1 linker (protein+linker): 47%
  +(1) H2O: 27%
  +(2) H2O: 8%
[3]; 72 hrs
  0 linker (unconjugated protein): 19%
  1 linker (protein+linker): 43%
  +(1) H2O: 30%
  +(2) H2O: 8%
[3]; 168 hrs
  0 linker (unconjugated protein): 19%
  1 linker (protein+linker): 43%
  +(1) H2O: 29%
  +(2) H2O: 8%
[3]; 336 hrs
  0 linker (unconjugated protein): 20%
  1 linker (protein+linker): 43%
  +(1) H2O: 29%
[3]; 336 hrs (2 weeks)
  +(2) H2O: 8%

B9: L4-FGF21ΔH-A129C: Linker-4 conjugated to FGF21ΔH-A129C protein (Table 4; Table 5 row L4) (conjugate, UniProt Q9NSA1 29-209, looked up, variant H1* A129C)
Fibroblast growth factor 21: PIPDSSPLLQFGGQVRQRYLYTDDAQQTEAHLEIREDGTVGGAADQSPESLLQLKALKPGVIQILGVKTSRFLCQRPDGALYGSLHFDPEACSFRELLLEDGYNVYQSEAHGLPLHLPGNKSPHRDPCPRGPARFLPLPGLPPALPEPPGILAPQPPDVGSSDPLSMVGPSQGRSPSYAS
modifications: Linker-4 attached
[3]; 0 hrs
  1 linker (protein+linker): 46%
  +(1) H2O: 28%
  +(2) H2O: 6%
[3]; [5]
  0 linker (unconjugated protein): 20%
[3]; 24 hrs
  0 linker (unconjugated protein): 20%
  1 linker (protein+linker): 46%
  +(1) H2O: 27%
  +(2) H2O: 7%
[3]; 72 hrs
  0 linker (unconjugated protein): 21%
  1 linker (protein+linker): 42%
  +(1) H2O: 30%
  +(2) H2O: 7%
[3]; 168 hrs
  0 linker (unconjugated protein): 21%
  1 linker (protein+linker): 41%
  +(1) H2O: 32%
  +(2) H2O: 6%
[3]; 336 hrs
  0 linker (unconjugated protein): 22%
  1 linker (protein+linker): 41%
  +(1) H2O: 31%
[3]; 336 hrs (2 weeks)
  +(2) H2O: 6%
